Target: T1, recombinant RUVBL1-RUVBL2 complex (His_RUVBL1_Flag_RUVBL2) (human, UniProt Q9Y265 1-456; Q9Y230 1-463)
T1 construct: Purified predominantly as a dodecamer; hetero-hexamers and hetero-dodecamers in native MS; the SPR fit counts one hexamer; The methods tell different things of the RUVBL2 tag (N-terminal FLAG with TEV site; 3xFLAG in the NMR methods); also called RUVBL1/2; RUVBL1/2 hetero-multimers; source: E. coli (DE3), co-expressed, purified (HisTrap, anti-Flag M2 gel, Superdex S200, Superose 6); not shown: …
Assay: SPR; RPAP3-Cter amine-coupled on CM5; RUVBL1-RUVBL2 complex injected, 10 concentrations up to 75.2 nM; 20 mM NaKPi pH 7.5, 150 mM NaCl, 5 mM MgCl2, 1 mM DTT, 0.05% P20; 25 °C; 1:1 Langmuir model counting one hexamer of RUVBL1/2; Biacore 4000
Conditions: both partners purified

T1 sequence (Q9Y265 whole entry, chain 1 of 2): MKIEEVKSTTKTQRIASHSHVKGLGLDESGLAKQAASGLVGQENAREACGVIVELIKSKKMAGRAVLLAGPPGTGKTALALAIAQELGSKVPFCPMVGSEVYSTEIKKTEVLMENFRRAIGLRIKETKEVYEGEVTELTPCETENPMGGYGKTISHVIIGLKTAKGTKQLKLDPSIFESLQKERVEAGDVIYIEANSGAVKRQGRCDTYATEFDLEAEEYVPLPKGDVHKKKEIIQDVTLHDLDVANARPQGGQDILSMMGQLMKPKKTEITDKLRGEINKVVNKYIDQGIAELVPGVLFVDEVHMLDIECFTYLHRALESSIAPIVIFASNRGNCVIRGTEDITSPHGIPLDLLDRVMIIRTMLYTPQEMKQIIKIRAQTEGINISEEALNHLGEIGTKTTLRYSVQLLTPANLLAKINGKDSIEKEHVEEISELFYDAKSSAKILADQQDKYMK
T1 sequence (Q9Y230 whole entry, chain 2 of 2): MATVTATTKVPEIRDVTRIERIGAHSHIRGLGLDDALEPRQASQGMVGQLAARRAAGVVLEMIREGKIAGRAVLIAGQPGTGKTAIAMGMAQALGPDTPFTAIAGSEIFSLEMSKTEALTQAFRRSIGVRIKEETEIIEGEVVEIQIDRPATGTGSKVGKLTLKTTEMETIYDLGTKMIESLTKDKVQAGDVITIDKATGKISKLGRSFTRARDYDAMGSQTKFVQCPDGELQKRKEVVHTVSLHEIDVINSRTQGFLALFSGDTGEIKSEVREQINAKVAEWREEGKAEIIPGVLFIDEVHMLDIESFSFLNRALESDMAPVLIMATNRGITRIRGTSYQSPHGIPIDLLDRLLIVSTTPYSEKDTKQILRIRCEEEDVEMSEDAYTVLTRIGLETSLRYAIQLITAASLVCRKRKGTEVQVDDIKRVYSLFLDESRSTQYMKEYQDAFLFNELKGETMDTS

B1: RPAP3_(535-665), C-terminal domain of human RPAP3 (domain or fragment, UniProt Q9H6T3 535-665, looked up)
chain: AQFATTVLPPIPANSFQLESDFRQLKSSPDMLYQYLKQIEPSLYPKLFQKNLDPDVFNQIVKILHDFYIEKEKPLLIFEILQRLSELKRFDMAVMFMSETEKKIARALFNHIDKSGLKDSSVEELKKRYGG
modifications: 13C/15N isotope labelling in the NMR samples
notes: RPAP3, human, residues 535-665; numbering of isoform 1; Vector pnEA-3CH; also called RPAP3-Cter; RPAP3 C-terminal domain; source: E. coli (DE3) pRARE2, purified (TALON, HRV-3C cleavage, S75 size exclusion)
- Kd: 4.18 nM
- koff: 0.00112 s⁻¹
- kon: 297000 M⁻¹ s⁻¹
